Read-outs that look alike come from different tables or passages of the source.
T1: mouse CCK-B receptor peptide (custom 15-amino-acid extracellular mouse sequence) (Mus musculus, UniProt P56481)
T1 chain: CETPRIRGTGTRELE

T2: mouse CCK-B receptor peptide (custom 15-amino-acid extracellular mouse sequence) (mouse)
T2 chain: CETPRIRGTGTRELE


Legend:
[1] = molecular target: T1, mouse CCK-B receptor peptide (custom …)
[2] = molecular target: T2, mouse CCK-B receptor peptide (custom …); test: BLI
[3] = molecular target: T1, mouse CCK-B receptor peptide (custom …); test: BLI; Octet RED384 instrument; scFv77-2 and mouse CCK-B peptide; conditions: both partners purified
[4] = molecular target: T1, mouse CCK-B receptor peptide (custom …); test: not stated
[5] = molecular target: T1, mouse CCK-B receptor peptide (custom …); test: ELISA; indirect ELISA of the scFvs on CCK-B receptor peptide, concentration-dependent; apparent affinity; methods in the supplementary section; conditions: both partners purified

| Binder | binding result [1] | other results |
| --- | --- | --- |
| CCK-BR_scFv13-3 (antibody, V domains shown) VH: EVQLQQSGAELVKPGASVKMSCKASGYTFTSYWMHWVKQRPGQGLEWIGYINPSTGYTEYNQKFKDKATLTADKSSSTAYMQLSSLTSEDSAVYYCAGDNYGYWYFDVWGAGTTVTVSS VL: DIVMTQSPSSLSVSAGEKVTMSCKSSQSLLNSGNQKNYLAWYQQKPGQPPKLLIYGASTRESGVPDRFTGSGSGTDFTLTISSVQAEDLAVYYCQNDHSYPYTFGGGTKLEIK | binds |  |
| CCK-B scFv77-2 antibody (scFv, V domains shown, VH of scFv77-2; 20-amino-acid flexible linker, printed as the formula [(G4S)4] and written out from it; VL of scFv77-2; Selected by ribosome display from a library of immunised mice; Apparent mass 26 kDa on the gel; The His-tag is named only for the Western blots of tissue after injection; Construct and methods are in the supplementary section; also called CCK-BR scFv 77-2; CCKBR scFv 77-2; …) VH: EVQLQQSGAELVRSGASVKLSCTASGFNIKDYYIHWVKQRPEQGLEWIGWIDPENGDTEYAPKFQGKATMTADTSSNTAYLQLSSLTSEDTAVYYCNAGGRFAYWGQGTLVTVSA VL: DIVMTQSPSSLSVSAGEKVTMSCKSSQSLLNSGNQKNYLAWYQQKPGQPPKLLIYGASTRESGVPDRFTGSGSGTDFTLTISSVQAEDLAVYYCQNDHSYPYTFGGGTKLEIK |  | koff [2]: 0.000381 s⁻¹; Kd [3]: 17.9 nM; Kd [4]: 195 nM |
| CCK-B scFv134-1 antibody (scFv, V domains shown, VH of scFv134-1; 20-amino-acid flexible linker, printed as the formula [(G4S)4] and written out from it; VL of scFv134-1; One of the panel of 7 anti-CCK-B receptor scFvs; Construct and methods are in the supplementary section; source: E. coli cytoplasm (pET32a expression vector), purified) VH: EVQLQQSGAELVKPGASVKMSCKASGYTFTDYWMHWVKQRPGQGLEWIGAIDTSDSYTSYNQKFKGKATLTVDKSSSTAYIQLSSLTSEDSAVYYCARSEGYLPFDYWGQGTTLTVSS VL: DVVMTQTPLSLPVSFGDQVSISCRSSQSLANSYGNTYLSWYLHKPGQSPQLLIYGISNRFSGVPDRFSGSGSGTDFTLKISTIKPEDLGMYYCLQGTHQPRTFGGGTKLEIK |  | binding result [5]: binds |
| CCK-BR_scFv11-2 (antibody, V domains shown) VH: QVQLKQSGAELVRPGSSVKISCKASGYAFTNYLIEWVKQRPGQGLEWIGQIYPGDGDTNYNGKFKGKATLTVDNSSSTAYMELRSLTSEDSAVYYCARAATWYYAMDYWGQGTSVTVSS VL: QIVLTQSPAIMSASPGEKVTITCSASSSVSYMHWFQQKPGTSPKLWIYSTSNLASGVPARFSGSGSGTSYSLTISSMEAEDAASYFCHQWSSYPWTFGGGTKLEIK | binds |  |
| CCK-BR_scFv93-1 (antibody, V domains shown) VH: QVQLKESGPGLVAPSQSLSITCTVSGFSLTSYGVHWVRQPPGKGLEWLGVIWAGGSTNYNSALMSRLSISKDNSKSQVFLKMNSLQTDDTAMYYCARGLRGAMDYWGQGTSVTVSS VL: DIVMTQSPSSLSVSAGEKVTMSCKSSQSLLASGNQNNYLAWHQQKPGRSPKMLIIWASTRESGVPDRFTGSGSGTDFTLTISSVQAEDVAVYYCQNDHSYPFTFGSGTKLEIK | binds |  |
| CCK-BR_scFv8-3 (antibody, V domains shown) VH: QVQLKESGAELAKPGASVKMSCKASGYTFTSYWMHWVKQRPGQGLEWIGYINPSTGYTEYNQKFKDKATLTADKSSSTAYMQLSSLTSEDSAVYYCARDYGSSFDYWGQGTTLTVSS VL: DVVMTQTPLTLSVTIGQPASISCKSSQSLLDSGNQKNYLAWYQQKPGQPPKLLIYGASTRESGVPDRFTGSGSGTDFTLTISSVQAEDLAVYYCQNDHSYPYTFGGGTKLEIK | binds |  |

Reference: paper PMC10341521, “Rapid Generation and Molecular Docking Analysis of Single-Chain Fragment Variable (scFv) Antibody Selected by Ribosome Display Targeting Cholecystokinin B Receptor (CCK-BR) for Reduction of Chronic Neuropathic Pain” (International Journal of Molecular Sciences, 2023)
